± gives the standard deviation.
Experiment: protein stability index of a GFP-peptide fusion (GPS, HEK-293T) (PSI 1-6); higher = more stable
[1] = treatment: DMSO, c terminus: a fixed tail appended
[2] = treatment: MLN4924 1 uM, 8 h, c terminus: a fixed tail appended
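Also: 24-mer peptide tiles fused after GFP, lentivirally expressed, FACS-sorted into six equal bins by GFP/DsRed ratio, decoded by Illumina sequencing, PSI is the read-weighted mean bin number.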

| Sequence | protein stability index [1] | protein stability index [2] | protein stability index (treatment: DMSO, c terminus: native) | protein stability index (treatment: MLN4924 1 uM, 8 h, c terminus: native) |
| --- | --- | --- | --- | --- |
| SRRVLLTNVVTGHRQSFGTNSDVL [DCAF4] | 2.87 ± 0.28 | 3.04 ± 0.26 | – | – |
| PRIVEMKKGSNGYGFYLRAGSEQK [PDZK1] | 3.53 ± 0.36 | 3.65 ± 0.54 | – | – |
| SEVSCKKRDDYLEWPEYFMAVAFL [DCTD] | 2.15 ± 0.48 | 2.16 ± 0.26 | – | – |
| SRPAVGPPQPGCPAFIIVKLSPLR [ZSWIM9] | 2.59 ± 0.19 | 2.33 ± 0.15 | – | – |
| DFLIRDSESSPSDFSVSLKASGKN [NCK2] | 4.25 ± 0.25 | 4.4 ± 0.18 | – | – |
| FKHTLSISRALLSDVVPEKERPLV [MFSD9] | 3.04 ± 0.12 | 3.24 ± 0.21 | – | – |
| VASCMHRQETVDCLKKFNARRKLK [CAMK2A] | 4.05 ± 0.69 | 4.03 ± 0.26 | – | – |
| KLEISTKEVPVVHTETKTITYESS [EPB41L3] | 4.83 ± 0.14 | 4.64 ± 1 | – | – |
| LMKHKSRKRRLFCTMEPEPVQPGM [TRIM35] | 3.51 ± 0.49 | 3.43 ± 0.17 | – | – |
| PFSSSSPENVEDSGLDSPSHAAPG [FCHO1] | 5.5 ± 0.19 | 5.4 ± 0.39 | – | – |
| DEDLRRQMQDDEQKTRLLEDSVSR [PALM] | 5.46 ± 0.32 | 5.31 ± 0.38 | – | – |
| HCTVKLRQTTGLMEYCLEVIKEND [TRIM9] | 3.07 ± 0.29 | 3.32 ± 0.37 | – | – |
| NSISSDKEATVPCTEILTEKKDTI [MIA2] | 5.29 ± 0.28 | 5.06 ± 0.21 | – | – |
| SDSGLSLDSSHSPSSLSSSEGSSS [NFE2L1] | 5.41 ± 0.23 | 5.34 ± 0.17 | – | – |
| SRHVTTRAALTYTSLEITILTSQP [M1AP] | 2.63 ± 0.51 | 2.6 ± 0.65 | – | – |
| DEEEEEEEEEEGRFYYSEDDHGDE [KCNA4] | 5.56 ± 0.14 | 5.55 ± 0.28 | – | – |
| IKSIVEASKGCQLGKTEQGFENMD [TRIM63] | 4.54 ± 0.31 | 4.38 ± 0.33 | – | – |
| DLYRDVMLENYSNLVSVGYQAGKP [ZNF649] | 2.82 ± 0.53 | 2.85 ± 0.23 | – | – |
| LGLRQHHCRKCGQAVCGKCSSKRS [WDFY1] | 4.28 ± 0.29 | 4.26 ± 0.29 | – | – |
| KQTQCPADPLQLNKALSIILHLIC [FEM1C] | 1.91 ± 0.17 | 2.21 ± 0.39 | – | – |
| YNSPQFKKTMSTFHNLVSLNLNYN [FBXO39] | 2.25 ± 0.32 | 2.12 ± 0.4 | – | – |
| IIDSSLEDITYVLKPTFTKQQIAN [USP39] | 2.69 ± 0.26 | 2.8 ± 0.24 | – | – |

| Sequence | protein stability index [1] | protein stability index [2] | protein stability index (treatment: DMSO, c terminus: native) | protein stability index (treatment: MLN4924 1 uM, 8 h, c terminus: native) |
| --- | --- | --- | --- | --- |
| GAKDHASIQMNVAEVSWEPGRREG [RPS21] | 4.14 ± 0.49 | 4.41 ± 0.41 | – | – |
| SPPKSPRTTVHDKSAHQTHSSWTP [DNAJC4] | 4.36 ± 0.15 | 4.41 ± 0.2 | – | – |
| EGYTSFWNDCISSGLRGGILIELA [GOLPH3L] | 3.14 ± 0.74 | 2.49 ± 0.52 | – | – |
| LAIKKQQHIDNITQIEDATEKLKA [TRIM14] | 4.41 ± 0.27 | 4.38 ± 0.21 | – | – |
| AIDRNYVPGKSLAVSCPGWSAVA [SNX12] | – | – | 2.73 ± 0.33 | 1.97 ± 0.31 |
| HQRIPQSVRILGSLVAILLVFLIT [SLC29A1] | 2.1 ± 0.37 | 2.33 ± 0.25 | – | – |
| SSDGSNFGWETKIKAWMDRYEEAN [KMT2E] | 3.79 ± 0.18 | 3.83 ± 0.15 | – | – |
| AELLKKQEELNRKAEELDRREREL [SCAMP3] | 5.43 ± 0.26 | 5.44 ± 0.33 | – | – |
| FDPDAKGLSDPGKIKRLRSQVQVS [HNF4A] | 3.84 ± 0.18 | 4.06 ± 0.28 | – | – |
| FGTIISGIQLLIVEYKDIASIHWD [SLC35F2] | 3.15 ± 0.29 | 3 ± 0.34 | – | – |
| PGPHSAKQDSYEQGDSSQQSLKGH [ZC2HC1C] | 5.24 ± 0.28 | 5.52 ± 0.082 | – | – |
| DRLNEQEGVPSVFNPPPSRPLQVN [FAF2] | 4.23 ± 0.28 | 4.25 ± 0.1 | – | – |
| MSKQRERQLRRRALHPERAMDNHS [RETREG3] | 4.31 ± 0.17 | 4.44 ± 0.088 | – | – |
| TNAGFLQTESELQELSEVLELLSA [FAN1] | 3.04 ± 0.21 | 3.03 ± 0.53 | – | – |
| EANGLLPDDKLTLFCEVSVVQDSV [SPOPL] | 2.88 ± 0.49 | 3.03 ± 0.66 | – | – |
| AHKMKFSDLFSLAEEYEDSSTKPP [INTS3] | 4.22 ± 0.17 | 4.17 ± 0.1 | – | – |
| DTKMSFQWRIRNLPYPKDVYSVSV [DPCD] | 2.79 ± 0.52 | 2.71 ± 0.65 | – | – |
| TYLRLIVDHHGTAQLQALRQKEVD [INTS3] | 2.27 ± 0.2 | 2.35 ± 0.3 | – | – |
| FDLAKGNAGKVNLPKELPADAVNL [PLAGL1] | 4.41 ± 0.21 | 4.5 ± 0.29 | – | – |
| GKEQGQNLARQWNNCAFLESSAKS [RAP1B] | 4.1 ± 0.17 | 4.13 ± 0.14 | – | – |
| TKPVVILPCQHNLCRKCANDIFQA [TRIM63] | 2.36 ± 0.26 | 2.55 ± 0.27 | – | – |
| HHPEVPQRILRIMCRLEELGLAGR [HDAC6] | 2.09 ± 0.088 | 2.52 ± 0.7 | – | – |

Reference: the supplement of paper PMC10567573
